Changes are numbered by the printed parent chain. Numbers in names are those of the source.
B1: PfPdx2HIS wild-type (Plasmodium falciparum Pdx2 with C-terminal 6x His-tag) (enzyme)
chain: MSEITIGVLSLQGDFEPHINHFIKLQIPSLNIIQVRNVHDLGLCDGLVIPGGESTTVRRCCAYENDTLYNALVHFIHVLKKPIWGTCAGCILLSKNVENIKLYSNFGNKFSFGGLDITICRNFYGSQNDSFICSLNIISDSSAFKKDLTAACIRAPYIREILSDEVKVLATFSHESYGPNIIAAVEQNNCLGTVFHPELLPHTAFQQYFYEKVKNYKYS
B2: PfPdx1 wild-type (Plasmodium falciparum Pdx1, Strep-tagged) (enzyme, P. falciparum, UniProt C6KT50 1-301, looked up)
chain: MENHKDDAVLLKHGWCEMLKGGVIMDVKSVEQAKIAEEAGAIGVMVLENIPSELRNKEGVARSVDPSKVEEIKKCVSINVLAKVRIGHFVEAQILEELKIDMIDESEVLTIADEMHHIDKHKFKTPFVCGCTNLGEALRRISEGASMIRTKGEAGTGNIIEAIKHIRTVNNEIKYLCSLSDSEVYHFAKKINAPIDLVLLTKKLKRLPVVNFAAGGVATPADAAMCMQLGMDGVFVGSGIFESENPRKMAASIVSAVSNFNNPKILLDVSMNLGKAMCGSTRVSDKWKNKNEEHTKFLTPQ
notes: molecular mass used for light scattering 34.2 kDa; also called PfPdx1 WT; plasmodial Pdx1; source: E. coli BLR (DE3); purified (Strep-Tactin) for light scattering; cell homogenate for co-purification; copies: 12
B3: PfPdx1 DKK (D26A/K83A/K151A) triple mutant (enzyme)
chain: B2 chain with D26A, K83A, K151A
notes: Pdx1 of Plasmodium falciparum in pASK-IBA3, triple mutant; Hexamer without additive; about half dodecamer with 10 mM glutamine; also called DKK to AAA (D26/K83/K151); DKK mutant; source: E. coli BLR (DE3); purified (Strep-Tactin) for light scattering; cell homogenate for co-purification
B4: PfPdx1 K151A (enzyme)
chain: B2 chain with K151A
notes: Pdx1 of Plasmodium falciparum in pASK-IBA3, point mutant; source: E. coli BLR (DE3); purified (Strep-Tactin) for light scattering; cell homogenate for co-purification

Columns and labels:
[1] = target: B3; experiment: cell-based or functional assay
PfPdx1 K83A = PfPdx1 K83A (P. falciparum, UniProt C6KT50 1-301, K83A); experiment: cell-based or functional assay
[2] = target: PfPdx1 ERR (E136A/R139A/R140A) triple mutant (P. falciparum, UniProt C6KT50 1-301, E136 to alanine | R139 to alanine | R140 to alanine); experiment: cell-based or functional assay
PfPdx1 K151A = target: B4; experiment: cell-based or functional assay
PfPdx1 D26A = PfPdx1 D26A (P. falciparum, UniProt C6KT50 1-301, D26A); experiment: cell-based or functional assay
[3] = target: the molecule itself; experiment: SEC-MALS; 100 ug purified Strep-tagged PfPdx1 on Superdex 200 10/30 with static light scattering (miniDAWN Tristar); 100 mM Tris-HCl pH 8.0, 150 mM NaCl, no amino acid added
[4] = target: the molecule itself; experiment: SEC-MALS; as a2, with 10 mM glutamine in the elution buffer

## B1
[1]
  glutaminase activity of PfPdx2 mixed equimolar with the PfPdx1 variant: 274 mU mg^−1
PfPdx1 K83A
  glutaminase activity of PfPdx2 mixed equimolar with the PfPdx1 variant: 291 mU mg^−1
[2]
  glutaminase activity of PfPdx2 mixed equimolar with the PfPdx1 variant: 286 mU mg^−1
PfPdx1 K151A
  glutaminase activity of PfPdx2 mixed equimolar with the PfPdx1 variant: 251 mU mg^−1
PfPdx1 D26A
  glutaminase activity of PfPdx2 mixed equimolar with the PfPdx1 variant: 285 mU mg^−1

## B2
[3]
  stoichiometry N: 12

## B3
[4]
  stoichiometry N: 12
[3]
  stoichiometry N: 6

## B4
[3]
  stoichiometry N: 6

Source: publication PMC2266796, “The Assembly of the Plasmodial PLP Synthase Complex Follows a Defined Course” (PLoS ONE, 2008)
